Results from patent US20210363269A1 (ALX ONCOLOGY, published 2021).

T1: high affinity SIRP-α D1 variant CV1-3
T1 chain: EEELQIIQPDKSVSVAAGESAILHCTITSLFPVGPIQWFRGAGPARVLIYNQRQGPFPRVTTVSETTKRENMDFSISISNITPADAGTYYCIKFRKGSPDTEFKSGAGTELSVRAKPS

T2: cynomolgus SIRP-α D1 domain (cyno2) (cynomolgus monkey, UniProt Q5TFQ8 30-148 (human entry), limits assumed)
T2 chain: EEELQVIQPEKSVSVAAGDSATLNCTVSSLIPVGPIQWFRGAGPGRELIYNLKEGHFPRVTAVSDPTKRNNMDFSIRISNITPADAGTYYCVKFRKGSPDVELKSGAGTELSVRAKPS

T3: cynomolgus SIRP-α D1 domain (cyno1) (cynomolgus monkey, UniProt Q5TFQ8 30-148 (human entry), limits assumed)
T3 chain: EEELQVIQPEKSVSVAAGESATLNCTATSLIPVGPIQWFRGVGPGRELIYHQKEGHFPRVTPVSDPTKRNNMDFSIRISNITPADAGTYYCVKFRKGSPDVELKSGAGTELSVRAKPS

T4: C57BL/6 mouse SIRP-α D1 domain (mouse (C57BL/6 strain), UniProt P97797 32-148)
T4 sequence: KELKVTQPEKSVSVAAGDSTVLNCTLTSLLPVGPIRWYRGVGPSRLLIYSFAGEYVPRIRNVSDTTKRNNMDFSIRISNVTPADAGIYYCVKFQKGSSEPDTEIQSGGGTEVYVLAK

T5: C57BL/6 mouse SIRP-α D1 domain (mouse (C57BL/6 strain), UniProt P97797 32-148)
T5 sequence: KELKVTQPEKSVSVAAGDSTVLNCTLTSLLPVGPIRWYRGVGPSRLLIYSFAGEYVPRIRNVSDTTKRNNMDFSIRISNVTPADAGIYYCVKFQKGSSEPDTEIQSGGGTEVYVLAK

T6: NOD mouse SIRP-α D1 domain (mouse (NOD strain))
T6 chain: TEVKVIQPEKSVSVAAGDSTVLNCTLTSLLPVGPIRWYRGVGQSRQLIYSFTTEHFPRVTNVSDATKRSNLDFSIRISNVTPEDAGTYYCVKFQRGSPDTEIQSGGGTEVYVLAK

T7: mouse 129 SIRP-α D1 domain (mouse (129 strain), UniProt P97797 32-150)
T7 construct: also called m129
T7 chain: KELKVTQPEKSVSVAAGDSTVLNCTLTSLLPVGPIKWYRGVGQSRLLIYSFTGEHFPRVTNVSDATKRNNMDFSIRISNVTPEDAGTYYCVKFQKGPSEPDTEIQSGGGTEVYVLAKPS

T8: cynomolgus SIRP-α D1 domain (SEQ ID NO:12) (cynomolgus, UniProt Q5TFQ8 30-148 (human entry), limits assumed)
T8 construct: also called cyno2; Cyno2
T8 chain: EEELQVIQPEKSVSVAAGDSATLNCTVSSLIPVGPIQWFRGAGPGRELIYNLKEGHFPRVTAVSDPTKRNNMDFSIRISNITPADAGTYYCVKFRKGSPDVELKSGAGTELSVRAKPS

T9: cynomolgus SIRP-α D1 domain (SEQ ID NO:11) (cynomolgus, UniProt Q5TFQ8 30-148 (human entry), limits assumed)
T9 construct: also called cyno1
T9 chain: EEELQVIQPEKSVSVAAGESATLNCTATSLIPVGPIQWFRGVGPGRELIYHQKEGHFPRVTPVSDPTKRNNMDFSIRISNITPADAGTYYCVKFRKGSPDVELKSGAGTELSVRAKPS


Tests used:
[1] = biological target: T1, high affinity SIRP-α D1 variant CV1-3; test: SPR, Langmuir fit
Outline: (§1)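 scFv-Fc antibody clones were captured from pre-filtered culture media onto anti-human IgG Fc, amine-coupled at about 4000 RU on a GLC chip in a ProteOn XPR36 instrument. SIRP analytes were passed over in PBS pH 7.4 with 0.01% Tween-20 at 25° C, and responses were double-referenced against interspot and buffer-blank signals. Curves were fitted to a 1:1 Langmuir model. Dissociation rate constants (koff) were taken from those fits.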

[2] = biological target: T10, human SIRP-α v1 D1 domain (human, UniProt P78324 31-149); test: SPR, Langmuir fit
T10 construct: also called human v1
T10 sequence (P78324 31-149 limits assumed): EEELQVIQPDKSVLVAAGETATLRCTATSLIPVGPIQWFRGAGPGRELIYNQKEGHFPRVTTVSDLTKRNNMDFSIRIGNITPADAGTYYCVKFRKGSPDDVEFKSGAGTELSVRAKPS
Outline: as §1

[3] = biological target: T2, cynomolgus SIRP-α D1 domain (cyno2); test: SPR, Langmuir fit
Outline: as §1

[4] = biological target: T3, cynomolgus SIRP-α D1 domain (cyno1); test: SPR, Langmuir fit
Outline: as §1

[5] = biological target: T4, C57BL/6 mouse SIRP-α D1 domain; test: SPR
Outline: as §1

human SIRPβ isoform 1 [6] = biological target: T11, human SIRPβ isoform 1 (human, UniProt O00241 30-148); test: SPR
T11 construct: also called SIRPb; sirpb1
Outline: as §1
T11 sequence (O00241 30-148 limits assumed): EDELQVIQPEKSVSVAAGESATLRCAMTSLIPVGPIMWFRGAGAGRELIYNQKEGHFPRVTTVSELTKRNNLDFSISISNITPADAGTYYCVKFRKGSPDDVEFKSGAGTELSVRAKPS

[7] = biological target: T12, human SIRP-α v2 D1 domain (human); test: SPR
T12 construct: also called human v2
Outline: as §1

[8] = biological target: T5, C57BL/6 mouse SIRP-α D1 domain; test: SPR, captured scFv-Fc
Outline: as §1

[9] = biological target: T6, NOD mouse SIRP-α D1 domain; test: SPR, captured scFv-Fc
Outline: as §1

[10] = biological target: T7, mouse 129 SIRP-α D1 domain; test: SPR, captured scFv-Fc
Outline: as §1

[11] = biological target: T13, human SIRP-α v2 D1 domain (human); test: SPR, captured scFv-Fc
T13 construct: also called human v2; human α v2
Outline: as §1

human SIRPγ isoform 1 = biological target: T14, human SIRPγ isoform 1 (human, UniProt Q9P1W8 29-147); test: SPR, captured scFv-Fc
T14 construct: also called sirpg; sirp-g
T14 sequence (Q9P1W8 29-147 limits assumed): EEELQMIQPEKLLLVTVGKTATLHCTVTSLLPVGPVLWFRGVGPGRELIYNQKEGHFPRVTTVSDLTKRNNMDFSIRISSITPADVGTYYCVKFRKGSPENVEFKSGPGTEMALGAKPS
Outline: as §1

[12] = biological target: T8, cynomolgus SIRP-α D1 domain (SEQ ID …); test: SPR, captured scFv-Fc
Outline: as §1

human SIRPβ isoform 1 [13] = biological target: T15, human SIRPβ isoform 1 (human, UniProt O00241 30-148); test: SPR, captured scFv-Fc
T15 construct: also called sirpb1; Sirpb1
Outline: as §1
T15 sequence (O00241 30-148 limits assumed): as the sequence (O00241 30-148 limits assumed) above

[14] = biological target: T9, cynomolgus SIRP-α D1 domain (SEQ ID …); test: SPR, captured scFv-Fc
Outline: as §1

Row | Binder | koff [1] [s⁻¹] | koff [2] [s⁻¹] | koff [3] [s⁻¹] | koff [4] [s⁻¹] | binding result [5] | binding result (human SIRPβ isoform 1 [6]) | binding result [7] | binding result [8] | binding result [9] | binding result [10] | binding result [11] | binding result (human SIRPγ isoform 1) | binding result [12] | binding result (human SIRPβ isoform 1 [13]) | binding result [14]
1 | S194 (scFv, V domains shown) VH: DVQLVESGGGVVRPGESLRLSCAASGFTFRNYGMSWVRQAPGEGLEWVSASSGSGSTYYADSVKGRFTISRDNSKNTLYLQMNSLRAEDTAIYYCAKVTWNNFFDYWGLGTLVTVSS VL: EIVLAQSPDTLSVSPGERATLTCRASQDVAGKLAWYQQKPGQAPRLLIHATSSRADGIPARFSGSGSGTEFTLTITGLQSEDFAVYYCQQHYDWSPLTFGGGTKVEIK | 0.00111 | 0.00117 | 0.00111 | 0.00131 | no binding (tested: Koff > 5 × 10^3 (legend)) | no binding (tested: Koff > 5 × 10^3 (legend)) | no binding (tested: Koff > 5 × 10^3 (legend)) |  |  |  |  |  |  |  | 
2 | S138 scFv-Fc (scFv, scFv-Fc; Human framework) scFv: EIVLTQSPGTLSVSPGERVILTCRASQSVDTYNLAWYQQKPGQAPRLLIYDLSTRATGIPDRFSGSGSGTEFTLTINSLEPEDFAVYYCHQYYDWPPYTFGGGTKVEIKGQSSRSSGGGGSSGGGGSDVQLVESGGGVVRPGESLRLSCAASGFTFSNYAMNWVRQAPGEGLEWVSGISGRGGDTYYADSVKGRFTISRDNSKNTLYLQMNSLRAEDTAIYYCAKGTWNYGSFDYWGLGTLVTVSSSLDPKSSDKTDTCPPCPAPELLGGPSVFLFPPKPKDTLMISRTPEVTCVVVDVSHEDPEVKFNWYVDGV |  |  |  |  |  |  |  | no binding (tested: 100 nM) | no binding (tested: 100 nM) | no binding (tested: 100 nM) | no binding (tested: 100 nM) | no binding (tested: 100 nM) | no binding (tested: 100 nM) | no binding (tested: 100 nM) | no binding (tested: 100 nM)
